Here are results for two molecules from patent US20220041756A1 (Chugai, published 2022).

The target of this assay is T1, human CD3 epsilon on human CD3 epsilon-expressing Ba/F3 cells (human, UniProt P07766 23-207).
T1 construct: The Ba/F3 transfectant is not itself tied to that entry; also called CD3/BaF; CD3 epsilon chain
Kind of assay: flow cytometry on human CD3 epsilon-expressing Ba/F3 cells, FITC-labeled secondary antibody, calibration curve. For orientation: Flow cytometry measures light scatter and fluorescence of single cells or particles in a stream.

T1 sequence (P07766 23-207 limits assumed): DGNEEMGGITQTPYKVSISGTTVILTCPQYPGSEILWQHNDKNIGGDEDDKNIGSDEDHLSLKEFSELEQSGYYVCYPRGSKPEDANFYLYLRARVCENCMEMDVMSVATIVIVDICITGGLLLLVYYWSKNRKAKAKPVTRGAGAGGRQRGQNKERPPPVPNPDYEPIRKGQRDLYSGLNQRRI
Experimental: After washing these cells, an FITC-labeled secondary antibody was added for further reaction. After washing the cells, the fluorescent intensity of the label on the cells was measured using Epics XL flow cytometer (Beckman coulter) to prepare a calibration curve for each antibody.
Plasma was prepared from the blood and diluted appropriately. […] The plasma concentration of each antibody was calculated using determined values and the calibration curves described above.

B1: GPC3 ERY9-1 (bispecific antibody, human IgG1, kappa, L234A L235A, N297A)
heavy: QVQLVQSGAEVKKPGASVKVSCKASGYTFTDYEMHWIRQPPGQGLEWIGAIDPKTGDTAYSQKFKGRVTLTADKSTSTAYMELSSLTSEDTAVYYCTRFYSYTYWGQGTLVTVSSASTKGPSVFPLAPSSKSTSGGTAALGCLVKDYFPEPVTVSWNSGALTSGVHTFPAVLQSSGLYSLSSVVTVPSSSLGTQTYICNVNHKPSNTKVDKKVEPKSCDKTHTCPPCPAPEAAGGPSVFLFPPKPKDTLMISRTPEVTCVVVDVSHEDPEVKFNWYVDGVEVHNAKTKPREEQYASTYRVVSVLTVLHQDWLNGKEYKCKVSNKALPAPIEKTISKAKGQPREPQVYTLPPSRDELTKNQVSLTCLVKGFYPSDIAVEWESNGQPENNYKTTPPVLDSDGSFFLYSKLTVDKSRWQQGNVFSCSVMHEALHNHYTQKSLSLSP
light 1: DIVMTQSPLSLPVTPGEPASISCRSSQSLVHSNRNTYLHWYQQKPGQAPRLLIYKVSNRFSGVPDRFSGSGSGTDFTLKISRVEAEDVGVYYCSQNTHVPPTFGQGTKLEIKRTVAAPSVFIFPPSDEQLKSGTASVVCLLNNFYPREAKVQWKVDNALQSGNSQESVTEQDSKDSTYSLSSTLTLSKADYEKHKVYACEVTHQGLSSPVTKSFNRGECHHHHHHHH
light 2: DIVMTQSPLSLPVTPGEPASISCRSSQSLVHSNRNTYLHWYQQKPGQAPRLLIYKVSNRFSGVPDRFSGSGSGTDFTLKISRVEAEDVGVYYCSQNTHVPPTFGQGTKLEIKRTVAAPSVFIFPPSDEQLKSGTASVVCLLNNFYPREAKVQWKVDNALQSGNSQESVTEQDSKDSTYSLSSTLTLSKADYEKHKVYACEVTHQGLSSPVTKSFNRGECGGGGSGGGGSQAVVTQESALTTSPGETVTLTCRSSTGAVTTSNYANWVQEKPDHLFTGLIGGTNKRAPGVPARFSGSLIGDKAALTITGAQTEDEAIYFCALWYSNLWVFGGGTKLTVLGGGGSGGGGSGGGGSEVKLLESGGGLVQPKGSLKLSCAASGFTFNTYAMNWVRQAPGKGLEWVARIRSKYNNYATYYADSVKDRFTISRDDSQSILYLQMNNLKTEDTAMYYCVRHGNFGNSYVSWFAYWGQGTLVTVSADYKDDDDK
notes: Anti-GPC3 IgG backbone with silent Fc
As for B1, the binding result is on record as “binds”.

B2: GPC3 ERY10-1 (bispecific antibody, human IgG1, kappa, L234A L235A, N297A)
heavy 1: QVQLVQSGAEVKKPGASVKVSCKASGYTFTDYEMHWIRQPPGQGLEWIGAIDPKTGDTAYSQKFKGRVTLTADKSTSTAYMELSSLTSEDTAVYYCTRFYSYTYWGQGTLVTVSSASTKGPSVFPLAPSSKSTSGGTAALGCLVKDYFPEPVTVSWNSGALTSGVHTFPAVLQSSGLYSLSSVVTVPSSSLGTQTYICNVNHKPSNTKVDKKVEPKSCDKTHTCPPCPAPEAAGGPSVFLFPPKPKDTLMISRTPEVTCVVVDVSHEDPEVKFNWYVDGVEVHNAKTKPREEQYASTYRVVSVLTVLHQDWLNGKEYKCKVSNKALPAPIEKTISKAKGQPREPQVYTLPPSRCELTKNQVSLSCAVKGFYPSDIAVEWESNGQPENNYKTTPPVLDSDGSFFLVSKLTVDKSRWQQGNVFSCSVMHEALHNHYTQKSLSLSPGGGGSGGGGSQAVVTQESALTTSPGETVTLTCRSSTGAVTTSNYANWVQEKPDHLFTGLIGGTNKRAPGVPARFSGSLIGDKAALTITGAQTEDEAIYFCALWYSNLWVFGGGTKLTVLGGGGSGGGGSGGGGSEVKLLESGGGLVQPKGSLKLSCAASGFTFNTYAMNWVRQAPGKGLEWVARIRSKYNNYATYYADSVKDRFTISRDDSQSILYLQMNNLKTEDTAMYYCVRHGNFGNSYVSWFAYWGQGTLVTVSADYKDDDDK
heavy 2: QVQLVQSGAEVKKPGASVKVSCKASGYTFTDYEMHWIRQPPGQGLEWIGAIDPKTGDTAYSQKFKGRVTLTADKSTSTAYMELSSLTSEDTAVYYCTRFYSYTYWGQGTLVTVSSASTKGPSVFPLAPSSKSTSGGTAALGCLVKDYFPEPVTVSWNSGALTSGVHTFPAVLQSSGLYSLSSVVTVPSSSLGTQTYICNVNHKPSNTKVDKKVEPKSCDKTHTCPPCPAPEAAGGPSVFLFPPKPKDTLMISRTPEVTCVVVDVSHEDPEVKFNWYVDGVEVHNAKTKPREEQYASTYRVVSVLTVLHQDWLNGKEYKCKVSNKALPAPIEKTISKAKGQPREPQVCTLPPSRDELTKNQVSLWCLVKGFYPSDIAVEWESNGQPENNYKTTPPVLDSDGSFFLYSKLTVDKSRWQQGNVFSCSVMHEALHNHYTQKSLSLSPHHHHHHHH
light: DIVMTQSPLSLPVTPGEPASISCRSSQSLVHSNRNTYLHWYQQKPGQAPRLLIYKVSNRFSGVPDRFSGSGSGTDFTLKISRVEAEDVGVYYCSQNTHVPPTFGQGTKLEIKRTVAAPSVFIFPPSDEQLKSGTASVVCLLNNFYPREAKVQWKVDNALQSGNSQESVTEQDSKDSTYSLSSTLTLSKADYEKHKVYACEVTHQGLSSPVTKSFNRGEC
notes: Anti-GPC3 IgG backbone with silent Fc and knobs-into-holes CH3; also called GPC ERY10-1
As for B2, the binding result was “binds”.
